Reference: publication PMC5550006

Molecular target: recombinant IPSE/alpha-1 expressed in tobacco plants (N-terminally tagged H6F-IPSE) (Schistosoma mansoni)
Assay: SDS-PAGE under reducing and non-reducing conditions; purified IPSE on a 12% Bis-Tris gel, with and without DTT, Coomassie brilliant blue staining

Substance “recombinant IPSE/alpha-1 expressed in tobacco plants (N-terminally tagged H6F-IPSE) (natural protein)” has a stoichiometry N of 2.
